Patent US20060211042A1 (Johns Hopkins, published 2006)

Molecular target: T1, rEAAT3/EAAC1 (rat excitatory amino acid transporter 3), full length, expressed in HEK 293T cells (rat, UniProt P51907 1-523)
T1 sequence (looked up): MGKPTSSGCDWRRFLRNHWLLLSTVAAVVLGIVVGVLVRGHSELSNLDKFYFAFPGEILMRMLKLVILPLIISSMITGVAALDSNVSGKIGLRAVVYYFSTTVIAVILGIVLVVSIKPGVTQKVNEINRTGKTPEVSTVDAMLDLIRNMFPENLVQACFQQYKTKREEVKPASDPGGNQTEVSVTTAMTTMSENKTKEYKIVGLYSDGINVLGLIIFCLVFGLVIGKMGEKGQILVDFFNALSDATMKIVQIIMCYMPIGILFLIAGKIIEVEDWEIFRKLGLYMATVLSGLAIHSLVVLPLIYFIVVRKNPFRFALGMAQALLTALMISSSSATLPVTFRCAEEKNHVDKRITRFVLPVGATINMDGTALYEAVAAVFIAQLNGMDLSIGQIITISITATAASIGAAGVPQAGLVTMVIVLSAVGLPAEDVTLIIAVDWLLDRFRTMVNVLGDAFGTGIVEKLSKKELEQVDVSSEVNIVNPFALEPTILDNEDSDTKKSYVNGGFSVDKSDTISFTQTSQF
Test: cell-based or functional assay

- decrease in Na+-dependent L-[3H]-glutamate uptake in HEK 293T cells, co-transfection at equal ratio: ~20%
B1: GTRAP3-18 (Glutamate Transporter Associated Protein of EAAT3), HA-tagged, expressed in HEK 293T cells (other, not shown: small tags and cut ends)
chain: MDVNLAPLRAWDDFFPGSDRFARPDFRDISKWNNRVVSNLLYYQTNYLVVAAMMISVVGFLSPFNMILGGIIVVLVFTGFVWAAHNKDILRRMKKQYPTAFVMVVMLASYFLISMFGGVMVFVFGITFPLLLMFIHASLRLRNLKNKLENKMEGIGLKKTPMGIILDALEQQEDSINKFADYISKARE
